# Numbering of substitutions follows the chain as printed. Names and notes keep the numbering of the source.
# B1: Hz45.01-LALA (antibody, human IgG1, kappa, L234A L235A, V domains shown)
# VH: QVQLVQSGAEVKKPGASVKVSCKASGYTFTDYYMNWVRQAPGQRLEWIGDINPNNGGTSYNQKFKGRATITVDTSASTAYMELSSLRSEDTAVYYCARGGAELTGTYWYFDVWGQGTTVTVSS
# VL: DIQMTQSPSSLSASVGDRVTITCRASENIYSNLAWYQQKPGKAPKVLVYGATNLADGVPSRFSGSGSGTEYTLTISSLQPEDFATYYCQHFWDSPFTFGGGTKVEIKR
# notes: Humanized L45S4, human IgG1 L234A/L235A, kappa; also called Humanized 45_01; Hu IgG 45_01 LALA
# B2: Hz156.03-LALA (antibody, human IgG1, kappa, L234A L235A, V domains shown)
# VH: QVQLVQSGAEVKKPGSSVKVSCKASGYTFTDYYMNWVRQAPGQGLEWIARIYPGVYRTHYNEKFKDRVTLTADKSTSTAYMELSSLRSEDTAVYYCARSGYYGGTYEEDAMDYWGQGTTVTVSS
# VL: B1 VL with V46L, G50A, N53S, E70D, H90N, S94T, F96Y, G100Q
# notes: Humanized L156S3, human IgG1 L234A/L235A, kappa
# Legend:
# [1] = molecular target: T1, human ILT4 expressed on cells (human, UniProt Q8N423 22-597); assay: cell-based or functional assay
# T1 sequence (Q8N423 22-597): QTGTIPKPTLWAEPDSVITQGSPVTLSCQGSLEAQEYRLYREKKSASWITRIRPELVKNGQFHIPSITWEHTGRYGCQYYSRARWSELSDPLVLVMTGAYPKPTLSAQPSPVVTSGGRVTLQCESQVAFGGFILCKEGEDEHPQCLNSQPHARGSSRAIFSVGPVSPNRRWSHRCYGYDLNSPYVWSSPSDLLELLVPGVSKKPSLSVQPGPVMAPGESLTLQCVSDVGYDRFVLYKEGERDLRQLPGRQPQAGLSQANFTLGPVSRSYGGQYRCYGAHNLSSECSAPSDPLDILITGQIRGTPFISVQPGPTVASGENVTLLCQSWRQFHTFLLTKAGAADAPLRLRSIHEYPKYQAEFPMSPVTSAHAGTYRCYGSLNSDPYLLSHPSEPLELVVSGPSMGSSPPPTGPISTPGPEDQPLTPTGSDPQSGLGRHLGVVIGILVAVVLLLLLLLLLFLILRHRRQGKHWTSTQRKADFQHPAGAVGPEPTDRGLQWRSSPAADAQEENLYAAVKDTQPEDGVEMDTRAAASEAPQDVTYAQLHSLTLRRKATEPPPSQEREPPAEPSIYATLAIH
# [2] = molecular target: T1, human ILT4 expressed on cells; assay: flow based HLA-G blocking assay
# [3] = molecular target: T2, recombinant human ILT4 (LILRB2) (human, UniProt Q8N423 22-460); assay: SPR, high resolution kinetics; reference Hz156
# T2 construct: Bought protein (Acro Biosystems or R&D Systems); also called ILTR4
# T2 sequence (Q8N423 other isoform, or with tags, fused parts or gaps limits assumed): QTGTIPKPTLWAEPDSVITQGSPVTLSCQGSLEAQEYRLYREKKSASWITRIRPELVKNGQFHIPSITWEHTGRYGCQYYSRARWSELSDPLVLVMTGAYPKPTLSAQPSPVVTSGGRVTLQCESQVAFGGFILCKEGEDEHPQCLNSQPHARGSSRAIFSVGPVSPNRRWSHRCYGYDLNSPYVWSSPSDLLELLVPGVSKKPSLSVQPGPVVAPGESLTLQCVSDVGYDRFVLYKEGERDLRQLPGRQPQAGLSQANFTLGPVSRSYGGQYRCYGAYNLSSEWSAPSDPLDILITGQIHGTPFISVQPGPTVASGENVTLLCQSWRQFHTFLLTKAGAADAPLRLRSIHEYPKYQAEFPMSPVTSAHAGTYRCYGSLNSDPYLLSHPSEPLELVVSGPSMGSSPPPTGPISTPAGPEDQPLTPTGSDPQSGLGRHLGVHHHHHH
# [4] = molecular target: T2, recombinant human ILT4 (LILRB2); assay: KinExA, solution equilibrium, n-curve analysis
# Experimental: Kinetic Exclusion Assay (KinExA®) was performed to measure the equilibrium binding affinity and kinetics between human ILT4 and four humanized LALA-Fc modified antibodies in solution. For affinity analysis, the equilibrium dissociation constant, KD, was experimentally determined and reflects the strength of the binding interaction. The rate of association, kₒₙ, was also experimentally determined, while the rate of dissociation, koff, is calculated based on the following equation: koff=KD×kₒₙ
# The binding affinity (KD), association (kₒₙ), and dissociation rate constants (koff) were measured for 4 different Humanized LALA IgG antibodies to ILT4 using KinExA. An n-curve analysis of at least two different curves, run at two different CBP concentrations, was used to determine the KD of the interactions The ILT4 was used as the concentration reference for all curves. All of the binding systems have low error and well defined 95% confidence intervals giving confidence to the measurements: […]
# [5] = molecular target: T2, recombinant human ILT4 (LILRB2); assay: SPR, high resolution kinetics, triplicate, LALA antibody; 95% CI in parentheses
# [6] = molecular target: T1, human ILT4 expressed on cells; assay: flow cytometry, blockade of PE-HLA-G tetramer binding to ILT4-CHO cells, Experiment 1
# [7] = molecular target: T1, human ILT4 expressed on cells; assay: flow cytometry, blockade of PE-HLA-G tetramer binding to ILT4-CHO cells, Experiment 3
# [8] = molecular target: T1, human ILT4 expressed on cells; assay: flow cytometry on ILT4-CHO cells, unlabelled mAb titrated; competitor AF647-Hz156.03-LALA
# Experimental: Competition binding assays were performed. […] Binding activities were measured by flow cytometry.
# Anti-human ILT4 mAbs at various concentrations (0-15 μg/ml) were incubated with ILT4-CHO cells. Cells were washed and stained with AF647-Hz156.03-LALA. Cells were analyzed by flow cytometry.
# [9] = molecular target: T1, human ILT4 expressed on cells; assay: flow cytometry, direct binding of AF647-labelled antibody (0-10 µg/ml) to ILT4-CHO cells
# Experimental: AF647-Hz45.01-LALA and AF647-Hz156.03-LALA at various concentrations (0-10 μg/ml) were incubated with ILT4-CHO cells and analyzed by flow cytometry.
# [10] = molecular target: T2, recombinant human ILT4 (LILRB2); assay: SPR, Biacore 8K, mAb captured on anti-human Fc, LILRB2 at 100 nM; legend: +++ binding (1-2 nM KD)
# Experimental: (§1) SPR was used to determine the specificity of four humanized anti-ILT4 mAbs for binding to LILRB2 and to determine any cross-reactivity with nine other LILRA and LILRB family members. LILR proteins were purchased from Acro Biosystems or R&D Systems, with sequence provided below. The studies were performed with a Biacore 8K instrument using a CM4 sensor chip with a running buffer of HBS-P+, 100 μg/mL BSA. Anti-human Fc specific capture surfaces were prepared using standard amine coupling chemistry. MAb was captured to flow cell 2 with flow cell 1 serving as the reference flow cell. Each of the nine family members and LILRB2 were injected at 100 nM at 30 μL/min for 90 sec with 240 sec of dissociation. […] All sensorgrams were doubled-referenced during processing of the data.
# [11] = molecular target: T1, human ILT4 expressed on cells; assay: flow cytometry, blockade of PE-HLA-A tetramer (5 ug/ml) binding to ILT4-CHO cells, Experiment 1 (table title prints HLA-G)
# [12] = molecular target: T1, human ILT4 expressed on cells; assay: flow cytometry, blockade of PE-HLA-A tetramer (5 ug/ml) binding to ILT4-CHO cells, Experiment 2 (table title prints HLA-G)
# [13] = molecular target: T2, recombinant human ILT4 (LILRB2); assay: SPR, Biacore T200, medium resolution; koff held at its limit of 4.27e-5 s^-1
# Summary of the method: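 Mouse, chimeric or humanized mAbs captured on anti-Fc surfaces (CM4 chip); ILT4 injected at 101 to 0.79 nM, 2-fold series, 90 s association, 1200 s dissociation. Run at 25° C in HBS-P+ pH 7.4 with 100 μg/ml BSA; double-referenced global 1:1 fit with mass-transport term, KD=koff/kon.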
# [14] = molecular target: T2, recombinant human ILT4 (LILRB2); assay: SPR, Biacore 8K, mAb captured on anti-human Fc, LILRB2 at 100 nM; legend: ++++ tight binding (<100 pM KD)
# Experimental: as §1
binder,measurement,setting,value
B1,"EC50 value of TNFa production, donor 4",[1],0.0138 µg/mL
same,"EC50 value of TNFa production, donor 5",[1],0.0185 µg/mL
same,IC50,[2],0.092 µg/mL
same,fold faster off-rate than Hz156,[3],29 fold
same,Kd,[4],0.0851 nM
same,kon,[5],3.45e+06 M⁻¹ s⁻¹
same,IC50,[6],0.198 µg/mL
same,IC50,[7],0.185 µg/mL
same,IC50,[8],0.381 µg/mL
same,EC50 (read off the curve),[9],~0.2 µg/mL
same,KD,[10],1 to 2 nM
same,IC50,[11],0.106 µg/mL
same,IC50,[12],0.122 µg/mL
B2,"EC50 value of TNFa production, donor 4",[1],0.00724 µg/mL
same,"EC50 value of TNFa production, donor 5",[1],0.0236 µg/mL
same,IC50,[2],0.212 µg/mL
same,Kd,[4],0.00916 nM
same,Kd,[13],≤ 0.086 nM
same,koff,[13],≤ 4.27e-05 s⁻¹
same,kon,[5],3.22e+06 M⁻¹ s⁻¹
same,IC50,[6],0.19 µg/mL
same,IC50,[7],0.233 µg/mL
same,IC50,[8],0.422 µg/mL
same,EC50 (read off the curve),[9],~0.2 µg/mL
same,KD,[14],< 0.1 nM
same,IC50,[11],0.149 µg/mL
same,IC50,[12],0.152 µg/mL
